Test results as given in patent US20160274129.
Changes are numbered by the printed parent chain. Several values for one entry are separate records, joined by “and”; a condition that tells them apart may be missing. Equal entries are not always repeated.

Columns and labels:
[1] = molecular target: T1, α-fructosyl-valyl-histidyl-leucyl-threonyl-proryl-glutamic acid
T1 chain: VHLTPE

[2] = molecular target: T2, α-fructosyl-valyl-histidine
T2 chain: VH

[3] = molecular target: T3, α-fructosyl-valyl-histidyl-leucine
T3 chain: VHL

[4] = molecular target: T4, α-fructosyl-valyl-histidyl-leucyl-threonyl-proryl-glutamyl-glutamyl-lysyl-seryl-alanyl-valyl-threonyl-alanyl-leucyl-tryptophyl-glycine
T4 chain: VHLTPEEKSAVTALWG

[5] = molecular target: T5, α-fructosyl-valyl-histidyl-leucyl-threonyl-proryl-glutamyl-glutamyl-lysine
T5 chain: VHLTPEEK

[6] = molecular target: T6, α-fructosyl-valyl-histidyl-leucyl-threonine
T6 chain: VHLT

[7] = molecular target: T7, α-fructosyl-valyl-histidyl-leucyl-threonyl-proline
T7 chain: VHLTP

B1: FAOAo2 (protein)
chain: MTVTKSSSILIIGAGTWGASTALHLGRRGYTNVTVLDPYTVPSAISAGNDVNKIISSGQYSNKKDEIEVNEILAEEAFKGWTTDPLFKPYYHDTGVVMSACSSAGLDRLGIRVRPEEEPDVSEVTKPEHFRQLAPAVLKGNFPGWRGYHIRSNAGWAHARNALVAAIREAEKLGVKFVTGTQGRVITLIFENNDVKGAVTADGKIWRAEQTVLCAGANAAQFLDFKDQLRPTAWTLAHIRLKPEERALYKNLPVIFNIEKGFFFEPDEERGEIKICDEHPGYTNMVKSADGHLTSLPFEKTQIPKESEARVRALLSETMPQLADRPFSFARVCWCADTANREFIIDRHPEHPSLVLGCGASGRGFKYLPSIGNLIVDAIEDKVPEKVHKLTRWSPDIAVDRKWRDTLGRFGGPNRVMDFHDVKEWTNVQNKDTAKL
Protein B1 has a Specific activity (U/mg), 1 mM αF6P, purified enzyme [1] of 0.0022 U/mg.

B2: CFP-T7-H21 (protein)
chain: MTSNRADTRVIVVGGGGTIGSSTALHLVRSGYAPANITVLDTFEIPSAQSAGHDLNKIMGIDLRNKVDLQMSLEARQMWKEDELFQPFFHNTGRMDCEHTPEGIEKLKKLYQRLHDAGAGLEKTHAWLDNEDEILSKMPLLQRDQIQGWKAIWSQDGGWLAAAKAINAIGQFLKERGVKFGFGGAGSFKQPLFDDEGTTCIGVETADGTKYYADKVVLAAGAWSPTLVDLEDQCCSKAWVYAHIQLTPEEAAEYKGVPVVYNGEFGFFFEPDEFGVIKVCDEFPGFSRFKEHQPYGAPSPKRISVPRSHAKHPTDTYPDASEVSIKKAIATFLPRFQDKELFNRALCWCTDTADAALLMCEHPKWKNFILATGDSGHSFKILPNVGKYVVELIEGRLPEEMAYQWRWRPGGDALKSRRAAPPKDLADMPGWKHDPKL
With B2 the Specific activity (U/mg), 1 mM αF6P, purified enzyme [1] was 0.795 U/mg, the αF6P oxidation activity (crude enzyme; αFVH oxidation activity = 100) (relative (αFVH = 100)) [1] was 20.8 and the αF6P/αFV [1] was 0.0377 and 0.0372. For the same protein, the αF6P/αFVH [1] was 0.196 and 0.208 and the Specific activity (U/mg), 1 mM αFVH, purified enzyme [2] was 4.05 U/mg.

B3: CFP-T7-H7 (protein)
chain: B2 chain with R64A, K106D, R113A
B3 gave a αF6P oxidation activity ratio (crude enzyme; CFP-T7-H6 = 100) (relative (CFP-T7-H6 = 100)) [1] of 17.

B4: CFP-T7-H14 (protein)
chain: B2 chain with K106D
B4 was tested, and the αF6P oxidation activity (crude enzyme; αFVH oxidation activity = 100) (relative (αFVH = 100)) [1] was 4.22, the αF6P oxidation activity ratio (crude enzyme; CFP-T7-H6 = 100) (relative (CFP-T7-H6 = 100)) [1] was 183 and the αF6P/αFV [1] was 0.00519. The αF6P/αFVH [1] was 0.0422.

B5: CFP-T7-H12 (protein)
chain: B2 chain with K106R, R113A
B5 gave a αF6P oxidation activity (crude enzyme; αFVH oxidation activity = 100) (relative (αFVH = 100)) [1] of 11.6, a αF6P oxidation activity ratio (crude enzyme; CFP-T7-H6 = 100) (relative (CFP-T7-H6 = 100)) [1] of 636 and a αF6P/αFV [1] of 0.0165. The αF6P/αFVH [1] was 0.116.

B6: CFP-T7-H10 (protein)
chain: B2 chain with K106A, R113A
For B6, the αF6P oxidation activity ratio (crude enzyme; CFP-T7-H6 = 100) (relative (CFP-T7-H6 = 100)) [1] was 301.

B7: CFP-T7-H27 (protein)
chain: B2 chain with L63K, R113K
B7 gave a αF6P oxidation activity ratio (crude enzyme; CFP-T7-H20 = 100) (relative (CFP-T7-H20 = 100)) [1] of 7.

B8: CFP-T7-H1 (protein)
chain: B2 chain with D62A, K106D, L110Q, R113A
Work on B8 yielded a αF6P oxidation activity (crude enzyme; αFVH oxidation activity = 100) (relative (αFVH = 100)) [1] of 0.0316, a αF6P/αFV [1] of 0.000222 and a αF6P/αFVH [1] of 0.000316.

B9: CFP-T7-H24 (protein)
chain: B2 chain with L63A, R113K
For B9, the αF6P oxidation activity (crude enzyme; αFVH oxidation activity = 100) (relative (αFVH = 100)) [1] was 86.7, the αF6P oxidation activity ratio (crude enzyme; CFP-T7-H20 = 100) (relative (CFP-T7-H20 = 100)) [1] was 123 and the αF6P/αFV [1] was 0.0461. For the same protein, the αF6P/αFVH [1] was 0.867.

B10: CFP-T7-H35 (protein)
chain: B2 chain with L63H, E102K, R113K, A355S
With B10 the Specific activity (U/mg), 1 mM αF3P, purified enzyme [3] was 1.24 U/mg, the Specific activity (U/mg), 1 mM αF6P, purified enzyme [1] was 4.27 U/mg and the “fold of specific activity on αF6P against FAOAo2 (Amadoriase 25/Comparative Example 2)” value [1] was 2 times (Amadoriase 26/Comparative Example 3) to 1,940 times (Amadoriase 25/Comparative Example 2). It also gave a αF6P oxidation activity ratio (crude enzyme; CFP-T7-H28 = 100) (relative (CFP-T7-H28 = 100)) [1] of 206, a αF6P/αFV [1] of 0.323 and a αF6P/αFVH [1] of 2.25. It also gave a Specific activity (U/mg), 1 mM αF16P, purified enzyme [4] of 0.247 U/mg, a Specific activity (U/mg), 1 mM αF8P, purified enzyme [5] of 1.59 U/mg and a Specific activity (U/mg), 1 mM αF4P, purified enzyme [6] of 0.352 U/mg. It also gave a Specific activity (U/mg), 1 mM αFVH, purified enzyme [2] of 1.9 U/mg and a Specific activity (U/mg), 1 mM αF5P, purified enzyme [7] of 2.15 U/mg.

B11: CFP-T7-H8 (protein)
chain: B2 chain with R64E, K106D, R113A
B11 gave a αF6P oxidation activity ratio (crude enzyme; CFP-T7-H6 = 100) (relative (CFP-T7-H6 = 100)) [1] of 2.

B12: CFP-T7-H29 (protein)
chain: B2 chain with L63H, R113K, A419K
B12 gave a αF6P oxidation activity (crude enzyme; αFVH oxidation activity = 100) (relative (αFVH = 100)) [1] of 111, a αF6P oxidation activity ratio (crude enzyme; CFP-T7-H26 = 100) (relative (CFP-T7-H26 = 100)) [1] of 102 and a αF6P/αFV [1] of 0.111. It also gave a αF6P/αFVH [1] of 1.11.

B13: CFP-T7-H11 (protein)
chain: B2 chain with R113A
B13 gave a αF6P oxidation activity (crude enzyme; αFVH oxidation activity = 100) (relative (αFVH = 100)) [1] of 12.5, a αF6P oxidation activity ratio (crude enzyme; CFP-T7-H6 = 100) (relative (CFP-T7-H6 = 100)) [1] of 951 and a αF6P/αFV [1] of 0.0245. It also gave a αF6P/αFVH [1] of 0.125.

B14: CFP-T7-H9 (protein)
chain: B2 chain with R64H, K106D, R113A
B14 was tested, and the αF6P oxidation activity ratio (crude enzyme; CFP-T7-H6 = 100) (relative (CFP-T7-H6 = 100)) [1] was 44.

B15: CFP-T7-62D (protein)
chain: B2 chain with K106D, L110Q, R113A
For B15, the Specific activity (U/mg), 1 mM αF6P, purified enzyme [1] was 0.018 U/mg, the “fold of specific activity on αF6P against PnFX (Amadoriase 26/Comparative Example 3)” value [1] was 2 times (Amadoriase 26/Comparative Example 3) to 1,940 times (Amadoriase 25/Comparative Example 2) and the αF6P/αFV [1] was 0.00113. The αF6P/αFVH [1] was 0.00132 and the Specific activity (U/mg), 1 mM αFVH, purified enzyme [2] was 1.62 U/mg.

B16: CFP-T7-H26 (protein)
chain: B2 chain with L63H, R113K
B16 was tested, and the αF6P oxidation activity (crude enzyme; αFVH oxidation activity = 100) (relative (αFVH = 100)) [1] was 84.3, the αF6P oxidation activity ratio (crude enzyme; CFP-T7-H20 = 100) (relative (CFP-T7-H20 = 100)) [1] was 142 and the αF6P/αFV [1] was 0.0773. For the same protein, the αF6P/αFVH [1] was 0.843.

B17: CFP-T7-H13 (protein)
chain: B2 chain with K106D, R113K
Protein B17 has a αF6P oxidation activity (crude enzyme; αFVH oxidation activity = 100) (relative (αFVH = 100)) [1] of 4.33, a αF6P oxidation activity ratio (crude enzyme; CFP-T7-H6 = 100) (relative (CFP-T7-H6 = 100)) [1] of 207 and a αF6P/αFV [1] of 0.00579. It also gave a αF6P/αFVH [1] of 0.0433.

B18: CFP-T7-H28 (protein)
chain: B2 chain with L63H, E102K, R113K
For B18, the αF6P oxidation activity (crude enzyme; αFVH oxidation activity = 100) (relative (αFVH = 100)) [1] was 134, the αF6P oxidation activity ratio (crude enzyme; CFP-T7-H26 = 100) (relative (CFP-T7-H26 = 100)) [1] was 117 and the αF6P/αFV [1] was 0.124. It also gave a αF6P/αFVH [1] of 1.34.

B19: CFP-T7-H25 (protein)
chain: B2 chain with L63D, R113K
With B19 the αF6P oxidation activity ratio (crude enzyme; CFP-T7-H20 = 100) (relative (CFP-T7-H20 = 100)) [1] was 24.

B20: CFP-T7 (protein)
chain: B2 chain with D62R, K106D, L110Q, R113A
Protein B20 has a Specific activity (U/mg), 1 mM αF3P, purified enzyme [3] of 0 U/mg, a Specific activity (U/mg), 1 mM αF6P, purified enzyme [1] of 0 U/mg and a αF6P oxidation activity (crude enzyme; αFVH oxidation activity = 100) (relative (αFVH = 100)) [1] of 0. For the same protein, the αF6P/αFV [1] was 0, the αF6P/αFVH [1] was 0 and the Specific activity (U/mg), 1 mM αF16P, purified enzyme [4] was 0 U/mg. It also gave a Specific activity (U/mg), 1 mM αF8P, purified enzyme [5] of 0 U/mg, a Specific activity (U/mg), 1 mM αF4P, purified enzyme [6] of 0 U/mg and a Specific activity (U/mg), 1 mM αFVH, purified enzyme [2] of 16.5 U/mg. It also gave a Specific activity (U/mg), 1 mM αF5P, purified enzyme [7] of 0 U/mg.

B21: CFP-T7-H20 (protein)
chain: B2 chain with R113K
B21 was tested, and the Specific activity (U/mg), 1 mM αF6P, purified enzyme [1] was 0.85 U/mg, the αF6P oxidation activity (crude enzyme; αFVH oxidation activity = 100) (relative (αFVH = 100)) [1] was 20.5 and the αF6P/αFV [1] was 0.0377 and 0.0389. The αF6P/αFVH [1] was 0.205 and 0.198 and the Specific activity (U/mg), 1 mM αFVH, purified enzyme [2] was 4.28 U/mg.
